In the test the test system is dorsal skin full-thickness excisional wound in STZ-induced diabetic rats. Put plainly: Dorsal skin full-thickness excisional wound model in STZ-induced diabetic rats, wound closure. Type of test: in vivo, Wistar rats. The settings on record: for Remaining open wound area: GeneTime 0.04 mL topical twice daily. As to the method:
In this study, 50 STZ-diabetic rats were used to simulate Type 1 diabetes, with an additional 8 normal rats serving as the control group (normal blank gel control group (without STZ)). The method for modeling the STZ-diabetic rat is as follows: Male Wistar rats were weighed and then intraperitoneally injected with Streptozotocin (STZ, freshly prepared, dissolved in 0.1 M citrate buffer (pH 4.5)) at a dosage of 80 mg/kg. STZ was intraperitoneally injected twice in total, with a 5-day interval between injections. Three days after the second STZ injection, rats with fasting blood glucose levels greater than 250 mg/dl were defined as diabetic model rats. Studies on skin wound healing could be conducted from 1 to 8 weeks after the successful establishment of the diabetic rat model. • 2.
In diabetic model rats, the dorsal skin was marked with a stamp, and full-thickness excision was performed to create a standardized wound area. The day of the full-thickness skin excision surgery was designated as Day 1 of the experiment. The specified surgical procedure was as follows: • 1) Prior to surgery, animals were anesthetized with 2-5% isoflurane. The back was shaved and prepared, and the surgical area was disinfected with iodophor, followed by de-iodination with 75% alcohol. • 2) All animals were marked on the skin of their backs using a stamp with a circular pattern. A circular full-thickness skin excision was performed along the midline of the rat's back, extending down to the fascial layer. […] The surgical site was essentially consistent for each animal; • 3) Post-surgery, every 8-12 hours, 8 mg/kg of bupivacaine (diluted to 0.25% with physiological saline) was injected subcutaneously at the wound site. All animals were closely monitored until they regained consciousness. Animals were monitored daily, and if symptoms of pain persisted, they would continue to receive pain medication. • 4. Drug administration:
All experimental groups were topically administered. Before administering the medication, wounds were rinsed with physiological saline and any residual moisture was absorbed with a sterile cotton swab. Then, the medication was applied. For the GeneTime group, the solution was evenly applied to the wound and surrounding skin, with the dressing changed twice a day. For the other groups, the gel samples were applied from the periphery toward the center, focusing first on the edges of the lesion before covering inward, with the dressing changed twice a day. Medication was applied immediately after the wound model was created, and each group was continuously administered for 18 days. For specific administration information, see Table 2. • 5. Efficacy assessment • 1) Blood glucose monitoring: Blood samples were obtained from all animals via tail vein sampling, and fasting blood glucose levels were measured on days 0/9/18 using a glucometer. • 2) Evaluation of wound closure:
After anesthetizing the rats with isoflurane, a ruler was placed near the wound as a reference scale. Using a digital camera, photos of the wound on the rat's back were taken on days 1, 4, 8, 11, 14, and 18, maintaining a constant focus and pixel condition. The obtained images were processed by software to measure the wound area. • 6. Statistical analysis
Experimental data were expressed as the mean±standard error of the mean (mean±S.E.M.). Statistical analyses were conducted using appropriate methods in software such as Graphpad Prism or SPSS. A p-value of less than 0.05 is considered to indicate a significant difference. • 7. Results • 1) Fasting blood glucose
Remaining Open Wound Area %=Open Wound Area (O)/Initial Wound Area (I)*100%

B1: GeneTime: Recombinant Human Epidermal Growth Factor External Solution, 2000 IU/mL; positive control (protein, UniProt P01133 23-1207, looked up)
Pro-epidermal growth factor: PQHWSCPEGTLAGNGNSTCVGPAPFLIFSHGNSIFRIDTEGTNYEQLVVDAGVSVIMDFHYNEKRIYWVDLERQLLQRVFLNGSRQERVCNIEKNVSGMAINWINEEVIWSNQQEGIITVTDMKGNNSHILLSALKYPANVAVDPVERFIFWSSEVAGSLYRADLDGVGVKALLETSEKITAVSLDVLDKRLFWIQYNREGSNSLICSCDYDGGSVHISKHPTQHNLFAMSLFGDRIFYSTWKMKTIWIANKHTGKDMVRINLHSSFVPLGELKVVHPLAQPKAEDDTWEPEQKLCKLRKGNCSSTVCGQDLQSHLCMCAEGYALSRDRKYCEDVNECAFWNHGCTLGCKNTPGSYYCTCPVGFVLLPDGKRCHQLVSCPRNVSECSHDCVLTSEGPLCFCPEGSVLERDGKTCSGCSSPDNGGCSQLCVPLSPVSWECDCFPGYDLQLDEKSCAASGPQPFLLFANSQDIRHMHFDGTDYGTLLSQQMGMVYALDHDPVENKIYFAHTALKWIERANMDGSQRERLIEEGVDVPEGLAVDWIGRRFYWTDRGKSLIGRSDLNGKRSKIITKENISQPRGIAVHPMAKRLFWTDTGINPRIESSSLQGLGRLVIASSDLIWPSGITIDFLTDKLYWCDAKQSVIEMANLDGSKRRRLTQNDVGHPFAVAVFEDYVWFSDWAMPSVMRVNKRTGKDRVRLQGSMLKPSSLVVVHPLAKPGADPCLYQNGGCEHICKKRLGTAWCSCREGFMKASDGKTCLALDGHQLLAGGEVDLKNQVTPLDILSKTRVSEDNITESQHMLVAEIMVSDQDDCAPVGCSMYARCISEGEDATCQCLKGFAGDGKLCSDIDECEMGVPVCPPASSKCINTEGGYVCRCSEGYQGDGIHCLDIDECQLGEHSCGENASCTNTEGGYTCMCAGRLSEPGLICPDSTPPPHLREDDHHYSVRNSDSECPLSHDGYCLHDGVCMYIEALDKYACNCVVGYIGERCQYRDLKWWELRHAGHGQQQKVIVVAVCVVVLVMLLLLSLWGAHYYRTQKLLSKNPKNPYEESSRDVRSRRPADTEDGMSSCPQPWFVVIKEHQDLKNGGQPVAGEDGQAADGSMQPTSWRQEPQLCGMGTEQGCWIPVSSDKGSCPQVMERSFHMPSYGTQTLEGGVEKPHSLLSANPLWQQRALDPPHQMELTQ
modifications: Pro-epidermal growth factor
notes: Recombinant Human Epidermal Growth Factor External Solution, 2000 IU/mL; positive control
For B1, the “Remaining open wound area” value (Day 1 (day of surgery)) was 100% ±; the “Remaining open wound area” value (Day 4) is listed as 91.82% ±; the “Remaining open wound area” value (Day 8) is 52.36% ±; the “Remaining open wound area” value (Day 14) is reported as 8.17% ±; the “Remaining open wound area” value (Day 18) is 1.79% ±. For the same molecule, the “Change of remaining open wound area % vs model blank gel control group” value (GeneTime, day 11 after administration, P<0.05) was “significantly reduced”.

The values above are taken from patent publication US20240238263A1, “USE OF PYRIDONE DERIVATIVE CONTAINING HETEROATOM CYCLOBUTANE SUBSTITUENT” (GUANGZHOU JOYO PHARMATECH CO., LTD, priority 2021, published 2024).
